Measurements as given in patent publication US20240279331A1 (University of California, published 2024).

What was measured:
[1] = biological target: T1, NCR1 extracellular domain TEV-cleavable Fc-fusion, biotinylated (human, UniProt O76036 22-258, biotinylated (site not stated)); assay: Fab-phage selection and Fab-phage ELISA on biotinylated ECD Fc-fusion (antigen column of Table S1)
T1 construct: extracellular domain; Antigen of the phage selections and Fab-phage ELISAs; not shown: TEV cleavage site and Fc domain
Protocol: To generate antibodies against these antigens, we expressed the extracellular domains (ECDs) of these proteins as TEV-cleavable Fc-fusions and performed Fab-phage display selections to enrich for high affinity antibody binders (FIG. S1), as previously described [Hornsby, M. et al., Mol Cell Proteomics. 14(10), 2833-2847 (2015)]. After each selection, Fab-phage ELISAs were performed to determine the relative affinity and selectivity of these binders for their antigen targets (FIG. S2).
TEV-cleavable Fc-fusion proteins were expressed and biotinylated in Expi293F cells using the standard expression protocol. Media were harvested after 4 days of expression and protein was purified by protein A affinity chromatography. Phage selections were performed according to previously established protocols1 with the Fab-phage Library E2. Non-specific binders were depleted from the library by incubating the phage pool with Fc-domain immobilized on streptavidin beads. Fab phage were selected using biotinylated Fc-fusions that were captured on streptavidin-coated magnetic beads, and were released through TEV elution. Each selection consists of four rounds. With each round, decreasing amounts of Fc-fusions (1 μM, 100 nM, 10 nM, and […]) were used. ELISAs were performed for 96 individual Fab-phage clones from the third or fourth rounds of selection to evaluate for affinity and selectivity.
ELISAs were performed as previously described1. In brief, Maxisorp plates were coated with 10 μg/mL of Neutravidin overnight at 4° C. Biotinylated target antigen (20 nM) was captured on the Neutravidin coated plates for 30 min, and then exposed to a 1:5 dilution of phage supernatants for 30 min. Bound phage were detected via a horseradish-peroxidase-conjugated anti-phage monoclonal antibody (GE Lifesciences).

[2] = biological target: T2, NCR1 extracellular domain fused to a generic transmembrane domain, on tetracycline-inducible FlpIn cells (human, UniProt O76036 22-258); assay: flow cytometry, Fab on tetracycline-inducible cells over-expressing the ECD (FIG. S5)
T2 construct: extracellular domain; HEK293 FlpIn cells, expression on tetracycline addition; also called NCR1 over expression cell line; not shown: transmembrane domain of platelet-derived growth factor (so in the source) with a HA tag
Protocol: (§1) To investigate the specificity of both activating and non-functional antibodies for their receptor targets, we developed a tetracycline-inducible cell line for each protein target—CD16, NCR1, NCR3, CD244, TNFRSF9, and TNFSF4. The ECDs of these proteins were fused to a generic transmembrane domain and were expressed upon tetracycline addition.
(§2) Titrations were performed on primary human NK cells or tetracycline induced overexpression cell lines as indicated. When tetracycline induced overexpression cell lines were used, cells were dosed with 10 μg/mL tetracycline for 2 days prior to staining. The starting concentration of each Fab or bispecific antibody was 1 μM, and serial 1:5 dilutions were performed. Antibodies were incubated with cells for 1 hr at 4° C., washed 2 times in 3% BSA in PBS pH 7.4, and stained for 30 min with an Alexafluor-647 conjugated goat anti-human IgG F(ab′)2 fragment (Jackson ImmunoResearch Laboratories) at a 1:50 dilution. After an additional 3 washes, cells were fixed and fluorescence was quantified using a CytoFLEX (Beckman Coulter). All flow cytometry data were analyzed using FlowJo software.

[3] = biological target: T3, NCR1 as expressed on NK cells (human, UniProt O76036 22-304); assay: flow cytometry, Fab titration on peripheral blood NK cells (FIG. S6)
T3 construct: whole, on cells; Primary human peripheral blood NK cells; NKL cells stably transduced with NCR1 in the bispecific cytotoxicity assay; also called peripheral blood NK cells; NCR1+ NKL cells
Protocol: To evaluate the affinity of the selected antibodies for NK cells, we titrated the nine Fab clones on peripheral blood NK cells.
as §2

[4] = biological target: T4, TNFSF4 extracellular domain fused to a generic transmembrane domain, on tetracycline-inducible FlpIn cells (UniProt P23510 51-183); assay: flow cytometry, Fab on tetracycline-inducible cell lines over-expressing each ECD (FIG. S5)
T4 construct: extracellular domain; also called OX40L; not shown: transmembrane domain of platelet-derived growth factor (so in the source) with a HA tag
T4 sequence (looked up): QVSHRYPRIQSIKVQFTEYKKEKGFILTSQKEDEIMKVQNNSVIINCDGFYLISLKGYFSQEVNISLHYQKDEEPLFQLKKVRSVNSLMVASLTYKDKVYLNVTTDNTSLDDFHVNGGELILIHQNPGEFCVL
Protocol: as §1, §2

[5] = biological target: T5, CD16 extracellular domain fused to a generic transmembrane domain, on tetracycline-inducible FlpIn cells (human, UniProt P08637 17-208); assay: as above
T5 construct: extracellular domain; HEK293 FlpIn cells, expression on tetracycline addition; also called CD16 over expression cell line; CD16A; not shown: transmembrane domain of platelet-derived growth factor (so in the source) with a HA tag
Protocol: as §1, §2

[6] = biological target: T6, NCR3 extracellular domain fused to a generic transmembrane domain, on tetracycline-inducible FlpIn cells (human, UniProt O14931 19-135); assay: as above
T6 construct: extracellular domain; HEK293 FlpIn cells, expression on tetracycline addition; also called NCR3 over expression cell line; not shown: transmembrane domain of platelet-derived growth factor (so in the source) with a HA tag
T6 sequence (looked up): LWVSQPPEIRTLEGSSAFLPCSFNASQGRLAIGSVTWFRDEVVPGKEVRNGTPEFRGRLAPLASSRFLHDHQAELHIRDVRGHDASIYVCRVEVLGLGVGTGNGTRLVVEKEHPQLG
Protocol: as §1, §2

[7] = biological target: T7, TNFRSF9 extracellular domain fused to a generic transmembrane domain, on tetracycline-inducible FlpIn cells (UniProt Q07011 24-186); assay: as above
T7 construct: extracellular domain; also called 4-1BB; not shown: transmembrane domain of platelet-derived growth factor (so in the source) with a HA tag
Protocol: as §1, §2

[8] = biological target: T8, CD244 extracellular domain fused to a generic transmembrane domain, on tetracycline-inducible FlpIn cells (UniProt Q9BZW8 22-229); assay: as above
T8 construct: extracellular domain; not shown: transmembrane domain of platelet-derived growth factor (so in the source) with a HA tag
T8 sequence (looked up): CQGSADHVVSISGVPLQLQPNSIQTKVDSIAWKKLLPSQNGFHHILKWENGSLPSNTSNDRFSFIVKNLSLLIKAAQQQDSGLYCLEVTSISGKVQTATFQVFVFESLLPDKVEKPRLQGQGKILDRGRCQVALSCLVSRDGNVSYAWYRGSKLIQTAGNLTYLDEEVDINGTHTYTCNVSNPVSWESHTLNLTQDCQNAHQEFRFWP
Protocol: as §1, §2

T1 sequence (O76036 22-258): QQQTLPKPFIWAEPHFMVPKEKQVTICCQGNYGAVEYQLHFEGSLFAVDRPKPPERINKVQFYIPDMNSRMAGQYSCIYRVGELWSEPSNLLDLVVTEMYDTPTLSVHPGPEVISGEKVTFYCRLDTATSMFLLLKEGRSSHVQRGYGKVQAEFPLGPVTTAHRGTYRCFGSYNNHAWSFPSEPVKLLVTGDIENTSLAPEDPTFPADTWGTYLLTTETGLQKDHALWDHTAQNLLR
T2 sequence (O76036 22-258): as above
T3 sequence (O76036 22-304): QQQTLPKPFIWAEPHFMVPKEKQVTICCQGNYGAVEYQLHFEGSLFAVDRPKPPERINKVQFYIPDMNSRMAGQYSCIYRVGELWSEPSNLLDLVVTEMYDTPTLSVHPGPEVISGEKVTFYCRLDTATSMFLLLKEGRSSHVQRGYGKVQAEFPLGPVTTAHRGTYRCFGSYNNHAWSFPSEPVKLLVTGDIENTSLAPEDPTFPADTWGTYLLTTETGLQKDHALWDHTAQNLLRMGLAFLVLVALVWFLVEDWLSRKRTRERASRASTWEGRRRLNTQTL
T5 sequence (P08637 17-208): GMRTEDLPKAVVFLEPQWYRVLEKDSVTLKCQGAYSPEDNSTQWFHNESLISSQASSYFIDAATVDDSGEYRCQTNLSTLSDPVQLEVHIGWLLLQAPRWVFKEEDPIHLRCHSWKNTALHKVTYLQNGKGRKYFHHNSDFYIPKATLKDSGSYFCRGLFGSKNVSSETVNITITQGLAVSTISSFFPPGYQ

binding result [1]: binds
binding result [2]: binds
binding result [3]: binds
binding result [4]: no binding
binding result [5]: no binding
binding result [6]: no binding
binding result [7]: no binding
binding result [8]: no binding
B1: NCR1.11 Fab (Fab)
heavy: EVQLVESGGGLVQPGGSLRLSCAASGFNVYYSYIHWVRQAPGKGLEWVASISSYYGSTYYADSVKGRFTISADTSKNTAYLQMNSLRAEDTAVYYCARSRYLQDYWSSWWVSWYGLDYWGQGTLVTVSSASTKGPSVFPLAPSSKSTSGGTAALGCLVKDYFPEPVTVSWNSGALTSGVHTFPAVLQSSGLYSLSSVVTVPSSSLGTQTYICNVNHKPSNTKVDKKVEPKSCDKTHT
light: DIQMTQSPSSLSASVGDRVTITCRASQSVSSAVAWYQQKPGKAPKLLIYSASSLYSGVPSRFSGSRSGTDFTLTISSLQPEDFATYYCQQSSSSLITFGQGTKVEIKRTVAAPSVFIFPPSDSQLKSGTASVVCLLNNFYPREAKVQWKVDNALQSGNSQESVTEQDSKDSTYSLSSTLTLSKADYEKHKVYACEVTHQGLSSPVTKSFNRGEC
notes: also called anti-NCR1 Fab #27
